From patent US9988424 (DUKE UNIVERSITY, dated 2018)

T1: gp70 B.CaseA2 V1/V2 (HIV-1 V1V2 on murine leukemia virus gp70)
T1 construct: also called B.gp70CaseA2 V1/V2; gp70 B.CaseAV1V2
T1 chain: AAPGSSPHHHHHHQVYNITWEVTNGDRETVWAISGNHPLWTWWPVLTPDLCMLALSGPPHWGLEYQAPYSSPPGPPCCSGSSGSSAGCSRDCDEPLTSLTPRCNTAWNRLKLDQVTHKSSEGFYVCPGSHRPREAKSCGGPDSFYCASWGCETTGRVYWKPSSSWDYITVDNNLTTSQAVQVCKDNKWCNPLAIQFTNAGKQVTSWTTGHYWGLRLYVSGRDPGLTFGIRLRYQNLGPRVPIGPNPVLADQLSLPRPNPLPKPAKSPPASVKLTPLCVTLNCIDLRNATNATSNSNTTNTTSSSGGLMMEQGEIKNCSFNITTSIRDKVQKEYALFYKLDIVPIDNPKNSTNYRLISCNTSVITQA

T2: SIV CPZ US-1 gp140CF (SIVcpz)
T2 construct: also called US-1 SIVCPZ gp140CF
T2 chain: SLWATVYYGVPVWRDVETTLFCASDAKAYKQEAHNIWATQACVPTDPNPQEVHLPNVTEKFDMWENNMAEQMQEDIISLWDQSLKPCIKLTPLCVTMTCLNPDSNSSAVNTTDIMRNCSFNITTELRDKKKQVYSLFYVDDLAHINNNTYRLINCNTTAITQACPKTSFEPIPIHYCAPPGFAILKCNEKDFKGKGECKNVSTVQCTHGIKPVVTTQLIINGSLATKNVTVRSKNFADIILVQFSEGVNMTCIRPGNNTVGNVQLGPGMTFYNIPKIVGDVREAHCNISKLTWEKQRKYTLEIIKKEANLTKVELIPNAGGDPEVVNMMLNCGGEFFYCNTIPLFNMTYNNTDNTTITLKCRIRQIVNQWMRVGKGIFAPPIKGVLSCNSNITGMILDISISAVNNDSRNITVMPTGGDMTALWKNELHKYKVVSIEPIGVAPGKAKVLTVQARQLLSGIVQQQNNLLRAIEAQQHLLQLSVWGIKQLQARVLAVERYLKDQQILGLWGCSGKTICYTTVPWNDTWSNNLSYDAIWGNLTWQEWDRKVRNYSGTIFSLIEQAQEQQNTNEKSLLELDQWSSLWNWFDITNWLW

T3: gp70 C.1086 V1/V2 (HIV-1 V1V2 on murine leukemia virus gp70)
T3 construct: also called C.gp70 1086C V1V2; C.1086gp70V1V2
T3 chain: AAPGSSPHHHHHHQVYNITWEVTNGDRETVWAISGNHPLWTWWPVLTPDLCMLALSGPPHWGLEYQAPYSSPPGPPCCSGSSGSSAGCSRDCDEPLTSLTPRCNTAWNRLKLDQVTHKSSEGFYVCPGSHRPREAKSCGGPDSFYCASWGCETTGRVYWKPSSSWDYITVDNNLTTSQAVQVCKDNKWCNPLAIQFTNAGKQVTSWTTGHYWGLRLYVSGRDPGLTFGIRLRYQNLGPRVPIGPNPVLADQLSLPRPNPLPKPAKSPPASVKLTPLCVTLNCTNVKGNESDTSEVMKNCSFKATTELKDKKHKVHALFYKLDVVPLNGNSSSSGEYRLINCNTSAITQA

T4: J08 B.HXB2/BALV1V2N156QN160Q (HIV-1)
T4 chain: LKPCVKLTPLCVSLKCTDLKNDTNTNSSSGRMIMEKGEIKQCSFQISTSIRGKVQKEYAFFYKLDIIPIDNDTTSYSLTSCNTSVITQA

B1: PG16 reverted unmutated ancestor antibody (antibody, V domains shown)
VH: QVQLVESGGGVVQPGRSLRLSCAASGFTFSSYGMHWVRQAPGKGLEWVAVISYDGSNKYYADSVKGRFTISRDNSKNTLYLQMNSLRAEDTAVYYCAREAGGPIWHDDVKYYDFNDGYYYYYYMDVWGKGTTVTVSS
VL: QSALTQPASVSGSPGQSITISCTGTSSDVGSYNLVSWYQQHPGKAPKLMIYEVSKRPSGVSNRFSGSKSGNTASLTISGLQAEDEADYYCCSLTDRSHRIFGGGTKLTVL
notes: also called PG16 RUA; PG16_RUA
B2: CH59 (antibody, V domains shown)
VH: EVQLVESGGGLVQPGRSLRLSCAASGFTFDDGAMHWVRQAPGKGLEWVSGISWNSNIIAYADSVKGRFTISRDNAKNSLYLEMNSLRVEDTALYYCAKDSPRGELPLNYWGQGTLVTVSS
VL: SYELTQPPSVSVSPGQTARITCSGDALPKNYAYWYQQKSGQAPVLVIYEDSKRPSGIPERFSGSSSGTMATLTISGAQVEDEADYYCYSTDSSGNHRVFGGGTKLTVL
notes: also called mAb CH59

What was measured:
gp70 B.CaseA2 V1/V2 = biological target: T1, gp70 B.CaseA2 V1/V2; test: ELISA, OD405 at 10 ug/ml
C.1086 gp140 = biological target: T5, C.1086 gp140; test: ELISA, OD405 at 10 ug/ml
T5 construct: also called C.1086gp140C

AE.A244 V1V2 Tags = AE.A244 V1V2 Tags (HIV-1); test: ELISA, OD405 at 10 ug/ml
B.con gp140CF = test: ELISA, OD405 at 10 ug/ml
C.1086 V1V2 Tags = C.1086 V1V2 Tags (HIV-1); test: ELISA, OD405 at 10 ug/ml
G.con gp140CF = test: ELISA, OD405 at 10 ug/ml
B.9021 gp140C = B.9021 gp140C (HIV-1); test: ELISA, OD405 at 10 ug/ml
B.62357 gp140C = biological target: T6, B.62357 gp140C; test: ELISA, OD405 at 10 ug/ml
T6 construct: also called B.62357 140C

AE.A244 gp120 delta 11 = biological target: T7, AE.A244 gp120 delta 11 (HIV-1); test: ELISA, OD405 at 10 ug/ml
T7 construct: also called E.A244gp120Δ11; AE.A244 Δ11 gp120

SIV CPZ US-1 gp140CF = biological target: T2, SIV CPZ US-1 gp140CF; test: ELISA, OD405 at 10 ug/ml
Con 6 gp120 = test: ELISA, OD405 at 10 ug/ml
AE.con gp140CF = test: ELISA, OD405 at 10 ug/ml
gp70 C.1086 V1/V2 = biological target: T3, gp70 C.1086 V1/V2; test: ELISA, OD405 at 10 ug/ml
B.63521_V1/V2 tags = test: ELISA, OD405 at 10 ug/ml
MN gp120 = MN gp120 (HIV-1)
[1] = biological target: T4, J08 B.HXB2/BALV1V2N156QN160Q; test: ELISA, mAb 0.001-100 ug/ml on coated V1V2 scaffold, OD450

| Binder | binding result (gp70 B.CaseA2 V1/V2) | binding result (C.1086 gp140) | binding result (AE.A244 V1V2 Tags) | binding result (B.con gp140CF) | binding result (C.1086 V1V2 Tags) | binding result (G.con gp140CF) | binding result (B.9021 gp140C) | binding result (B.62357 gp140C) | binding result (AE.A244 gp120 delta 11) | binding result (SIV CPZ US-1 gp140CF) | binding result (Con 6 gp120) | binding result (AE.con gp140CF) | binding result (gp70 C.1086 V1/V2) | binding result (B.63521_V1/V2 tags) | IC50 (MN gp120) [nM] | binding result [1] |
| --- | --- | --- | --- | --- | --- | --- | --- | --- | --- | --- | --- | --- | --- | --- | --- | --- |
| B1 | no binding (tested: 10 ug/ml) | no binding (tested: 10 ug/ml) | no binding (tested: 10 ug/ml) | no binding (tested: 10 ug/ml) | no binding (tested: 10 ug/ml) | no binding (tested: 10 ug/ml) | no binding (tested: 10 ug/ml) | no binding (tested: 10 ug/ml) | no binding (tested: 10 ug/ml) | no binding (tested: 10 ug/ml) | no binding (tested: 10 ug/ml) | no binding (tested: 10 ug/ml) | no binding (tested: 10 ug/ml) | no binding (tested: 10 ug/ml) |  |  |
| B2 |  |  |  |  |  |  |  |  |  |  |  |  |  |  | 10 to 100 | no binding (tested: 100 ug/ml) |
